Several values for one entry are separate records, joined by “and”; a condition that tells them apart may be missing. Identical values can stand only once.

For test [1], the target named is human EGFRvIII protein, full length, on transfected cells (human) (UniProt P00533). As to the kind of experiment: FACS, U87MG-hEGFRvIII 1D1 cells. For orientation: A flow cytometer gives signals particle by particle.
Test [2] shares this target. Kind of test: FACS, 293F-hEGFRvIII 1C10 cells.
Test [3] has the same target. Kind of test: FACS, CHO-K1-hEGFRvIII 1E3 cells.
Test [4] has the same target. Kind of test: FACS, U87MG-hEGFRvIII 2G2 cells.
For test [5] the target is unchanged. Kind of test: FACS, 293F-hEGFRvIII 1D11 cells. Note: test concentration or dose not given here.
For test [6] the target is unchanged. As to the kind of experiment: FACS, U87MG-hEGFRvIII 2C6 cells.
Test [7] shares this target. Kind of test: FACS, U87MG-hEGFRvIII 1F9 cells. Note: test concentration or dose not given here.
Test [8] shares this target. Kind of test: FACS, CHO-K1-hEGFRvIII 2D11 cells.
For test [9] the target is unchanged. As to the kind of experiment: FACS, 293F-hEGFRvIII 1F3 cells.
Test [10] has the same target. As to the kind of experiment: FACS, U87MG-hEGFRvIII 1B3 cells. Note: test concentration or dose not given here.
The target is the same in test [11]. Kind of test: FACS, CHO-K1-hEGFRvIII 1G10 cells.
The target in another test is T1, pep19.
T1 sequence (peptide, C-terminal K(Biotin)): ACGADSYEMEEDGVRKK
As to the kind of experiment: peptide dot matrix ELISA. A general note: ELISA stands for enzyme-linked immunosorbent assay.

In another test the target is T2, pep15 (cysteine pairing not given here).
T2 peptide: SCVRACGADSYEMEEDK(Biotin)
Kind of test: peptide dot matrix ELISA.

The target of another test is T3, pep05 (cysteine pairing not given here).
T3 peptide: KGNYVVTDHGSCVRACK(Biotin)
As to the kind of experiment: peptide dot matrix ELISA.

A further test deals with T4, pep14 (cysteine pairing not given here).
T4 peptide: GSCVRACGADSYEMEEK(Biotin)
As to the kind of experiment: peptide dot matrix ELISA.

IgG subtype control (antibody): the cell mean fluorescence intensity in test [1] came to 3; in [2] it was 4.3; in test [3] it was 2.4; in test [4], 1.8; in [5] it was 3.6; in test [6], 1.8. Further, the cell mean fluorescence intensity in test [7] was found to be 1.7; in [8], 1.8; in test [9] it was 4.1; in test [10] it was 2.3; in test [11], 2.4.

B1: Chimeric antibody 63A10 (antibody, V domains shown)
VH: QVQLQQSGAELARPGASVKMSCKASGYTFISFTMHWVKQRPGQGLEWIGYINPNSGYTKYNQKFKDKATLTAGQSSSTAYMQLSSLTSEDSAVYYCTRGGGRGFAYWGQGTLVTVSA
VL: DILMTQSPSSMSVSLGDTVTITCHASQDINSNIGWLQQKPGKSFKALIYHGTNLEDGVPSRFSGSGSGADYSLTISSLESEDFADYYCVQYAQFPFTFGSGTKLEIK
As to B1, the ELISA signal with pep19 is 0.11 and 0.15; in the test with pep15 it was 0.14 and 0.11; with pep05, 0.15 and 0.17; with pep14 it was 0.08 and 0.23.

For the origin of these results see patent US20210032351A1 (XDCEXPLORER SHANGHAI, published 2021).
